Laboratory results published in the FLAb antibody collection.

experiment: patients with anti-drug antibodies; higher = more immunogenic

| Protein | patients with anti-drug antibodies |
| --- | --- |
| unnamed (protein) chain 1: EVHLVESGGALVKPGGSLRLSCAASGFSFSKYGMSWVRQAPGKGLEWVATISSSGSRTYYPDSVKGRFTISRDNAKNTLYLQMNSLRAEDTAMYYCSISWDGAMDYWGQGTTVTVSS chain 2: DVVMTQSPLSLPVTLGQPASISCKSSQSIVHSNGNTYLEWYLQKPGQSPQLLVYKVSNRFSGVPDRFSGSGSGTDFTLKISRVEAEDVGTYYCFQGSLVPWAFGGGTKVEIK | 6.2% |
| unnamed (protein) chain 1: QVQLQESGPGLVKPSQTLSLTCSFSGFSLSTSGMGVGWIRQPSGKGLEWLAHIWWDGDESYNPSLKSRLTISKDTSKNQVSLKITSVTAADTAVYFCARNRYDPPWFVDWGQGTLVTVSS chain 2: DIQMTQSTSSLSASVGDRVTITCRASQDISNYLSWYQQKPGKAVKLLIYYTSKLHSGVPSRFSGSGSGTDYTLTISSLQQEDFATYFCLQGKMLPWTFGQGTKLEIK | 37% |
| unnamed (protein) chain 1: EVQLVQSGAEVKKPGESLKISCKGSGYSFSNYWIGWVRQMPGKGLEWMGIIDPSNSYTRYSPSFQGQVTISADKSISTAYLQWSSLKASDTAMYYCARWYYKPFDVWGQGTLVTVSS chain 2: QSVLTQPPSVSGAPGQRVTISCTGSSSNIGSGYDVHWYQQLPGTAPKLLIYGNSKRPSGVPDRFSGSKSGTSASLAITGLQSEDEADYYCASWTDGLSLVVFGGGTKLTVL | 6% |
| unnamed (protein) chain 1: QAYLQQSGAELVRPGASVKMSCKASGYTFTSYNMHWVKQTPRQGLEWIGAIYPGNGDTSYNQKFKGKATLTVDKSSSTAYMQLSSLTSEDSAVYFCARVVYYSNSYWYFDVWGTGTTVTVSA chain 2: QIVLSQSPAILSASPGEKVTMTCRASSSVSYMHWYQQKPGSSPKPWIYAPSNLASGVPARFSGSGSGTSYSLTISRVEAEDAATYYCQQWSFNPPTFGAGTKLELK | 1.9% |
| unnamed (protein) chain 1: QVQLQQSGPEVVKPGASVKMSCKASGYTFTSYVIHWVRQKPGQGLDWIGYINPYNDGTDYDEKFKGKATLTSDTSTSTAYMELSSLRSEDTAVYYCAREKDNYATGAWFAYWGQGTLVTVSS chain 2: DIVMTQSPDSLAVSLGERVTMNCKSSQSLLYSTNQKNYLAWYQQKPGQSPKLLIYWASTRESGVPDRFSGSGSGTDFTLTISSVQAEDVAVYYCQQYYSYRTFGGGTKLEIK | 15% |
| unnamed (protein) chain 1: EVQLLESGGGLVQPGGSLRLSCAASGFTFSSYAMNWVRQAPGKGLEWVSAITMSGITAYYTDDVKGRFTISRDNSKNTLYLQMNSLRAEDTAVYYCAKEEFLPGTHYYYGMDVWGQGTTVTVSS chain 2: AIQMTQSPSSLSASVGDRVTITCRASQGIRNDLGWYQQKPGKAPKLLIYSASTLQSGVPSRFSGSGSGTDFTLTISSLQPEDFATYCLQDYNYPWTFGQGTKVEIK | 2.5% |
